Source: patent publication US20250304913A1

Experiments:
[1] = target: OT-I TCR; test: cell-based or functional assay
[2] = target: OT-I TCR; test: cell-based or functional assay; remark: listed apart in the source

Molecule | proportion of surviving OT-I cells after 18 hours of co-culture [1] [%] | proportion of surviving OT-I cells after 36 hours of co-culture [1] [%] | proportion of surviving OT-I cells after 60 hours of co-culture [1] [%] | IFN-gamma positive bait CAR T cells in the presence of OT-I target cells [2] [%] | IL-2 positive bait CAR T cells in the presence of OT-I cells [2] [%] | OT-I cells remaining in the population after 48 hours of co-culture (competitive survival assay) [2] [%] | activation of bait CAR T cells (expression of CD107a) in the presence of OT-I T cells [2] [%] | degranulation of OT-I T cells (CD107a-positive) in co-culture with bait CAR T cells [2] [%]
OVA-MHCI Bait-CD3Zeta Fully Live CAR (peptide-MHC) | 32.1 | 19.5 | 0.69 |  |  |  |  | 
OVA-MHCI Bait-SIINFEKL CAR (peptide-MHC) SIINFEKLGGGGSGGGGSGGGGSIQKTPQIQVYSRHPPENGKPNILNCYVTQFHPPHIEIQMLENGKKIPKVEMSDMSFSKDWSFYILAHTEFTPTETDTYACRVKHASMAEPKTVYWDRDMGGGGSGGGGSGGGGSGGGGSGPHSLRYFVTAVSRPGLGEPRYMEVGYVDDTEFVRFDSDAENPRYEPRARWMEQEGPEYWERETQKAKGNEQSFRVDLRTLLGYYNQSKGGSHTIQVISGCEVGSDGRLLRGYQQYAYDGCDYIALNEDLKTWTAADMAALITKHKWEQAGEAERLRAYLEGTCVEWLRRYLKNGNATLLRTDSPKAHVTHHSRPEDKVTLRCWALGFYPADITLTWQLNGEELIQDMELVETRPAGDGTFQKWASVVVPLGKEQYYTCHVYHQGLPEPLTLRWEIEFMYPPPYLDNERSNGTIIHIKEKHLCHTQSSPKLFWALVVVAGVLFCYGLLVTVALCVIWTNSRRNRGGQSDYMNMTPRRPGLTRKPYQPYAPARDFAAYRPRAKFSRSAETAANLQDPNQLFNELNLGRREEFDVLEKKRARDPEMGGKQQRRRNPQEGVYNALQKDKMAEAYSEIGTKGERRRGKGHDGLFQGLSTATKDTFDALHMQTLAPR |  |  |  | 11.4 | 14.9 | 5.01 | 24.8 | 80.4
